Measurements: the supplement of paper PMC10567573
± gives the standard deviation.

Assay: protein stability index of a GFP-peptide fusion (GPS, HEK-293T) (PSI 1-6); higher = more stable
Conditions: c terminus: a fixed tail appended
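Also: 24-mer peptide tiles fused after GFP, lentivirally expressed, FACS-sorted into six equal bins by GFP/DsRed ratio, decoded by Illumina sequencing, PSI is the read-weighted mean bin number.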

Sequence | protein stability index (treatment: DMSO) | protein stability index (treatment: MLN4924 1 uM, 8 h)
KMNFIKTYPAHQNRVSAIIFSLAT [WDFY1] | 2.65 ± 0.51 | 2.5 ± 0.37
KMSNSFHGIRPPQLEQPEKMPVLK [RHOBTB3] | 4.33 ± 0.16 | 4.34 ± 0.068
KNFSNNSNLIRHQRIHAAERLCMG [ZNF263] | 2.86 ± 0.73 | 2.73 ± 0.35
KNKKKKLKKKQKRQAELLEKRLQE [SRPK2] | 5.15 ± 0.42 | 5.06 ± 0.48
KNWVKELRQHGPPNIVVAIAGNKC [RAB22A] | 2.29 ± 0.23 | 2.47 ± 0.21
KPGRKTNQLQYMQNVVVKTLWKHQ [BRD3] | 2.25 ± 0.2 | 2.62 ± 0.21
KPHFESSTVKTETISFGSVSPGGV [EPB41L3] | 4.08 ± 0.23 | 4.09 ± 0.11
KPLYVAFSFMYILVGLTVIGAFLN [KCNK9] | 2.79 ± 0.67 | 2.97 ± 0.62
KPPMMPQAQPAIPRPNRLFLRQLR [C2CD2L] | 3.22 ± 0.17 | 3.43 ± 0.42
KPQEIVQVEIFSTNPDLYPVRRID [IQUB] | 2.82 ± 0.38 | 2.79 ± 0.4
KPYKCTLCGENFSHRSNLIRHQRI [ZNF263] | 2.74 ± 0.51 | 3.43 ± 0.39
KQGQCTKGDKCKFSHDLTLERKCE [ZC3H15] | 4.75 ± 0.15 | 4.6 ± 0.1
KQGYILNSDQTTCRIQDLCAMEDH [MATN2] | 3.35 ± 0.27 | 3.17 ± 0.39
KQPPVTQSKTASDKSPSTVRDQGP [FBF1] | 5.29 ± 0.17 | 5.27 ± 0.091
KQPPWEFLQVLEPGARGLWKPPDI [SPAG8] | 2.45 ± 0.089 | 2.32 ± 0.23
KQRSVCTWGKNKPGIGAVILKRFC [FAN1] | 1.99 ± 0.31 | 2.02 ± 0.15
KRALAEGAQIWCGEGVDKLSLPAR [ALDH8A1] | 3.58 ± 0.3 | 3.71 ± 0.17
KRFDESMQVFAKLGTDPTHVMGLY [VPS39] | 2.38 ± 0.25 | 2.69 ± 0.095
KRNNFYIKIRPGEFEQFESTIGFK [EPB41L3] | 2.12 ± 0.52 | 2.46 ± 0.24
KRSSLPRPSSILPPRRGVSGDRDE [MAP2] | 5.04 ± 0.24 | 5.16 ± 0.3
KRWQKNNWPKNSNGVTQKASAPTY [NANOGP8] | 3.39 ± 0.17 | 3.47 ± 0.21
KSAHQTHSSWTPPNAQYWSQFHSV [DNAJC4] | 2.74 ± 0.28 | 2.67 ± 0.18

Sequence | protein stability index (treatment: DMSO) | protein stability index (treatment: MLN4924 1 uM, 8 h)
KSKWDEEWDKNKSAFPFSDKLGEL [CLINT1] | 3.82 ± 0.31 | 3.85 ± 0.21
KSLDGVTNDRTASQGQWGRAWEVD [DHCR7] | 4.47 ± 0.11 | 4.465 ± 0.035
KSNGFFHGISIPEPEDMETLEEKF [CDKL4] | 4.5 ± 0.14 | 4.56 ± 0.27
KTKEVQHNCQLHRISFCADDKTDK [GULP1] | 4.66 ± 0.36 | 4.71 ± 0.21
KVEFPEARIYEETLNILLYEAQDG [KCTD10] | 2.77 ± 0.15 | 2.94 ± 0.35
KVEFTEEEIKTWGTVFQELNKLYP [TPH1] | 2.77 ± 0.24 | 2.91 ± 0.34
KVENLTLKNHFQSVLEQLELQEKQ [TAF7L] | 3.54 ± 0.13 | 3.96 ± 0.094
KVLGRLRALSDTTEELTVIKSSLK [SLC2A12] | 2.58 ± 0.25 | 2.76 ± 0.28
KVLHEDKQTREQLHSISDSVLFLQ [TRIM29] | 3.46 ± 0.16 | 3.58 ± 0.27
KVPIAQDELALSLGYAASLEASVQ [C2CD2L] | 3.65 ± 0.33 | 3.64 ± 0.34
KVTDHATTALLHYQLPQMPDVVVR [MED27] | 3.07 ± 0.19 | 3.28 ± 0.24
KYWCVTATRVAPERLFGSAANVVS [ZBED1] | 2.25 ± 0.34 | 2.38 ± 0.28
LAAAHGHSEVVEELVSADVIDLFD [RIPK4] | 4.08 ± 0.37 | 4.5 ± 0.46
LAEALLHPFFAGLTPEERSFHTSR [CLK3] | 2.29 ± 0.2 | 2.21 ± 0.23
LAQDWERCNTTCGRGVKKRLVLCM [ADAMTSL2] | 1.56 ± 0.33 | 1.79 ± 0.19
LARKNREELDKYWSQQIEESTTVV [KRT18] | 4.24 ± 0.13 | 4.12 ± 0.23
LCATHFGEPLEKVASVGNSRPTGQ [KISS1] | 3.95 ± 0.4 | 4.01 ± 0.23
LCEKFDYLYGILEERKNEMTQVIT [TRIM55] | 2.7 ± 0.15 | 2.88 ± 0.4
LCNEISLSEIKDAPKVNAVDTLNV [DLC1] | 3.77 ± 0.4 | 3.81 ± 0.25
LDEFARENIDSLYNVNLSKGRAAL [SCNN1D] | 3.82 ± 0.17 | 3.85 ± 0.31
LDHCANRVLMYGSELDADHPGFKD [TPH1] | 4.62 ± 0.27 | 4.81 ± 0.057
LDLMPRLMTSKPAEVVKILQTMLR [INTS4] | 2.23 ± 0.16 | 2.13 ± 0.15

Sequence | protein stability index (treatment: DMSO) | protein stability index (treatment: MLN4924 1 uM, 8 h)
LDLSSSSQMSPLSLYGENSNSLSS [ATF6] | 4.01 ± 0.19 | 3.92 ± 0.26
LDQALKEGGKLPPPPPPSYDPDYI [ZC2HC1A] | 4.95 ± 0.16 | 4.89 ± 0.16
LDVKSPPEPRSEVVPARLKRASAP [RIPK4] | 5.08 ± 0.49 | 5.11 ± 0.092
LEADELCDDGGDGRGAVVPGAGLR [ZBTB22] | 5.18 ± 0.27 | 5.26 ± 0.17
LEAIQLDGEILFSLLQKVSPVAHK [TBC1D10A] | 2.12 ± 0.48 | 2.01 ± 0.34
LEDGQTPLHLSALRDDVLCARMLY [ASB7] | 2.67 ± 0.29 | 2.93 ± 0.33
LEEEIRRKQILLRGKLKKTEEELR [ZC2HC1C] | 4.39 ± 0.17 | 4.59 ± 0.39
LEEQFALEAGGYQAGAARLEEELR [PRPH] | 5.35 ± 0.49 | 5.62 ± 0.16
LEGQSPPQSLPSTPKAAWIREEGR [PBXIP1] | 4.89 ± 0.26 | 4.76 ± 0.091
LEHRLNEMERTQAQLRDAVQSLQL [RASAL3] | 4.16 ± 0.51 | 4.22 ± 0.19
LELSYGFENGQKAAVVHHFESFPA [TOR1AIP2] | 2.52 ± 0.58 | 2.42 ± 0.18
LEPKANLQAALQVLELHHSKLDTT [VPS39] | 4.2 ± 0.19 | 4.31 ± 0.19
LEQEQEFQVNKLMKKIKKLENDTI [CCDC6] | 4.31 ± 0.6 | 4.19 ± 0.58
LESLEDTHIMKGEDDALSDKHGCP [TRIB1] | 5.23 ± 0.69 | 5.37 ± 0.57
LESYEDIHGTLHLERLAYLHARLR [PRAME] | 2.41 ± 0.18 | 2.61 ± 0.29
LFFAVGIAQYALLGYFIRSWRTLA [SLC22A15] | 3.3 ± 0.34 | 3.18 ± 0.26
LGACVRTAVAQGGWRSLWLGWGPT [SLC25A39] | 2.07 ± 0.63 | 2.04 ± 0.16
LGLDDFESLKVIGRGAFGEVRLVQ [STK38L] | 3.55 ± 0.58 | 3.38 ± 0.33
LGNREALIQFLEQVHQGIKGMVLD [CPN1] | 2.43 ± 0.34 | 2.26 ± 0.18
LGVLHPNTKLRQAERLFENQLVGP [APMAP] | 2.57 ± 0.32 | 3.16 ± 0.24
LHSGLVHGLAFWFDVAFIGSIMTV [CARM1] | 3.87 ± 0.46 | 3.56 ± 1.3
